Test results as given in article PMC5063714 (Journal of medicinal chemistry, 2016).
Where two headings read alike, the source gives them in different places. Each block holds one binder with its values, some of them ahead of it. Square brackets hold non-standard residues; d marks the D form. Side chains are listed from the residue outwards. Ends that are not written are not given here. * marks the point of attachment. pyrrolidinyl = lysine with its side-chain amine cyclized into a pyrrolidine ring; azepanyl = lysine epsilon-N closed into a 7-membered azepane ring; piperidinyl = lysine epsilon-N closed into a piperidine ring; Lys(Me3) = C[N+](C)(C)CCCC[C@H](N)C(=O)O; NMeF = CN[C@@H](Cc1ccccc1)C(=O)O; dicyclobutyl = not defined here; diethyl = not defined here; Cyclopentyl = C1CCC(*)C1; cyclohexyl = C1CCC(*)CC1; Bz = O=C(c1ccccc1)*; iPr = CC(C)*

Assays:
Test in all cases: AlphaScreen or HTRF
chromodomain of CBX5 [1] = biological target: chromodomain of CBX5 (human)
Sequence of chromodomain of CBX5 (human) (Q9UN86 18-75): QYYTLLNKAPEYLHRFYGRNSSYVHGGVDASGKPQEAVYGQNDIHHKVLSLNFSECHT

chromodomain of CBX5 [2] = biological target: chromodomain of CBX5 (human); remark: listed apart in the source
chromodomain of CBX7 [3] = biological target: T1, chromodomain of CBX7 (human, UniProt O95931 8-62)
T1 sequence (looked up): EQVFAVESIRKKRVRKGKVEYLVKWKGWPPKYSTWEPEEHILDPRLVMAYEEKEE

chromodomain of CBX4 [4] = biological target: T2, chromodomain of CBX4 (human, UniProt O00257-1 8-65)
T2 sequence (looked up): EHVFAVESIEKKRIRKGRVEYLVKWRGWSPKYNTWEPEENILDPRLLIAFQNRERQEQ

chromodomain of CDYL2 [5] = biological target: T3, chromodomain of CDYL2 (human, UniProt Q8N8U2 1-75)
T3 sequence (looked up): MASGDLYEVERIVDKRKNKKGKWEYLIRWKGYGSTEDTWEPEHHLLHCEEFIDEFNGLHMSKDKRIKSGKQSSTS

chromodomain of CBX5 [6] = biological target: chromodomain of CBX5 (human); remark: listed apart in the source
chromodomain of CBX7 [7] = biological target: T1, chromodomain of CBX7; remark: listed apart in the source
chromodomain of CBX4 [8] = biological target: T2, chromodomain of CBX4; remark: listed apart in the source
chromodomain of CDYL2 [9] = biological target: T3, chromodomain of CDYL2; remark: listed apart in the source
chromodomain of CBX5 [10] = biological target: chromodomain of CBX5 (human); remark: listed apart in the source

Binder: {4‑tBu‑Bz}-F(CH2NHBoc)ALK(diethyl)S-OMe (reading uncertain) [compound 48]
IC50 (chromodomain of CBX5 [6]): 44000 nM
IC50 (chromodomain of CBX7 [7]): 56 nM
IC50 (chromodomain of CBX4 [8]): 98 nM
IC50 (chromodomain of CDYL2 [9]): 160 nM

Binder: Bz-GFALK([norbornyl-Ac])S-OMe [compound 23]
IC50 (chromodomain of CBX5 [1]): > 60000 nM

Binder: Bz-GFAL[Lys(Me3)]S-OMe [compound 6]
IC50 (chromodomain of CBX5 [10]): > 60000 nM

Binder: Bz-GFALK(tetramethylguanidino)S-OMe [compound 24]
IC50 (chromodomain of CBX5 [1]): > 60000 nM

Binder: {2‑Me‑Bz}-FALK(diethyl)S-OMe (reading uncertain) [compound 28]
IC50 (chromodomain of CBX5 [2]): > 60000 nM
IC50 (chromodomain of CBX7 [3]): 25000 nM
IC50 (chromodomain of CBX4 [4]): 58000 nM
IC50 (chromodomain of CDYL2 [5]): 560 nM

Binder: {4‑Me‑Bz}-FALK(diethyl)S-OMe (reading uncertain) [compound 30]
IC50 (chromodomain of CBX5 [2]): 21000 nM
IC50 (chromodomain of CBX7 [3]): 220 nM
IC50 (chromodomain of CBX4 [4]): 770 nM
IC50 (chromodomain of CDYL2 [5]): 280 nM

B1: compound 10 (peptide)
peptide: GFALKS
modifications: N-terminal benzoyl (Bz) cap; N-methylated glycine amide (N(me)Gly); trimethyl-lysine (Kme3); C-terminal methyl ester (Ser-OMe)
IC50 (chromodomain of CBX5 [10]): > 60000 nM

Binder: {4‑tBu‑Bz}-FAL[Lys(Me3)]S-OMe [compound 39]
IC50 (chromodomain of CBX5 [2]): > 60000 nM
IC50 (chromodomain of CDYL2 [5]): 110 nM

Binder: Bz-GFALKS-OMe (not fully specified (residues 3, 5)) [compound 8]
IC50 (chromodomain of CBX5 [10]): > 60000 nM

Binder: Bz-FALK(diethyl)S-OMe (reading uncertain) [compound 27]
IC50 (chromodomain of CBX5 [2]): 6900 nM
IC50 (chromodomain of CBX7 [3]): 1200 nM
IC50 (chromodomain of CBX4 [4]): 3000 nM
IC50 (chromodomain of CDYL2 [5]): 340 nM

Binder: Bz-G[NMeF]AL[Lys(Me3)]S-OMe [compound 9]
IC50 (chromodomain of CBX5 [10]): > 60000 nM

B2: compound 3 (peptide)
peptide: Bz-Ala-Leu-[Lys(Me3)]-NHMe
SMILES: CNC(=O)[C@H](CCCC[N+](C)(C)C)NC(=O)[C@H](CC(C)C)NC(=O)[C@H](C)NC(=O)c1ccccc1
IC50 (chromodomain of CBX5 [10]): > 60000 nM

Binder: Bz-GFALK(cyclohexyl)S-OMe [compound 14]
IC50 (chromodomain of CBX5 [1]): > 60000 nM

Binder: {4‑CO2Me‑Bz}-FALK(diethyl)S-OMe (reading uncertain) [compound 33]
IC50 (chromodomain of CBX5 [2]): 26000 nM
IC50 (chromodomain of CBX7 [3]): 570 nM
IC50 (chromodomain of CBX4 [4]): 1200 nM
IC50 (chromodomain of CDYL2 [5]): 110 nM

Binder: Bz-GFALK(piperidinyl)S-OMe [compound 20]
IC50 (chromodomain of CBX5 [1]): > 60000 nM

Binder: Bz-GFALK(azepanyl)S-OMe [compound 21]
IC50 (chromodomain of CBX5 [1]): > 60000 nM

Next, values leading:

IC50 (chromodomain of CBX5 [1]): > 60000 nM
Binder: Bz-GFALK(pyrrolidinyl)S-OMe [compound 19]

IC50 (chromodomain of CBX5 [1]): > 60000 nM
Binder: Bz-GFALK(dimethyl)S-OMe [compound 17]

IC50 (chromodomain of CBX5 [2]): > 60000 nM
IC50 (chromodomain of CBX7 [3]): 740 nM
IC50 (chromodomain of CBX4 [4]): 2700 nM
IC50 (chromodomain of CDYL2 [5]): 340 nM
Binder: {3‑Me‑Bz}-FALK(diethyl)S-OMe (reading uncertain) [compound 29]

IC50 (chromodomain of CBX5 [2]): 14000 nM
IC50 (chromodomain of CBX7 [3]): 81 nM
IC50 (chromodomain of CBX4 [4]): 190 nM
IC50 (chromodomain of CDYL2 [5]): 100 nM
Binder: {4‑Et‑Bz}-FALK(diethyl)S-OMe (reading uncertain) [compound 31]

IC50 (chromodomain of CBX5 [1]): > 60000 nM
Binder: Bz-GFALK(adamantyl)S-OMe [compound 16]

IC50 (chromodomain of CBX5 [1]): > 60000 nM
Binder: Bz-GFALKS-OMe [compound 11]

IC50 (chromodomain of CBX5 [1]): > 60000 nM
Binder: Bz-GFALK(iPr)S-OMe [compound 12]

IC50 (chromodomain of CBX5 [6]): 53000 nM
IC50 (chromodomain of CBX7 [7]): 63 nM
IC50 (chromodomain of CBX4 [8]): 170 nM
IC50 (chromodomain of CDYL2 [9]): 75 nM
Binder: {4‑tBu‑Bz}-F(CH2NH2)ALK(diethyl)S-OMe (reading uncertain) [compound 47]

IC50 (chromodomain of CBX5 [1]): > 60000 nM
Binder: Bz-GFALK(norbornyl)S-OMe [compound 15]

IC50 (chromodomain of CBX5 [2]): 33000 nM
IC50 (chromodomain of CBX7 [3]): 230 nM
IC50 (chromodomain of CBX4 [4]): 480 nM
IC50 (chromodomain of CDYL2 [5]): 130 nM
Binder: {4‑CF3‑Bz}-FALK(diethyl)S-OMe (reading uncertain) [compound 34]

IC50 (chromodomain of CBX5 [1]): > 60000 nM
Binder: Bz-GFALK(dicyclobutyl)S-OMe (reading uncertain) [compound 22]

IC50 (chromodomain of CBX5 [6]): > 60000 nM
IC50 (chromodomain of CBX7 [7]): 130 nM
IC50 (chromodomain of CBX4 [8]): 240 nM
IC50 (chromodomain of CDYL2 [9]): 740 nM
Binder: {4‑tBu‑Bz}-FALK(diethyl)S-OH (reading uncertain) [compound 44]

IC50 (chromodomain of CBX5 [6]): > 60000 nM
IC50 (chromodomain of CBX7 [7]): 47 nM
IC50 (chromodomain of CBX4 [8]): 140 nM
IC50 (chromodomain of CDYL2 [9]): 360 nM
Binder: {4‑tBu‑Bz}-FALK(diethyl)S-NMe2 (reading uncertain) [compound 45]

IC50 (chromodomain of CBX5 [1]): > 60000 nM
Binder: Bz-GFALK(diethyl)S-OMe (reading uncertain) [compound 18]

IC50 (chromodomain of CBX5 [2]): 38000 nM
IC50 (chromodomain of CBX7 [3]): 61 nM
IC50 (chromodomain of CBX4 [4]): 160 nM
IC50 (chromodomain of CDYL2 [5]): 100 nM
Binder: {4‑iPr‑Bz}-FALK(diethyl)S-OMe (reading uncertain) [compound 32]

IC50 (chromodomain of CBX5 [6]): > 60000 nM
IC50 (chromodomain of CBX7 [7]): 75 nM
IC50 (chromodomain of CBX4 [8]): 200 nM
IC50 (chromodomain of CDYL2 [9]): 410 nM
Binder: {4‑tBu‑Bz}-FALK(diethyl)S (reading uncertain; also: C-terminal carbonyl removed entirely (R3 = -H)) [compound 46]

IC50 (chromodomain of CBX5 [2]): > 60000 nM
IC50 (chromodomain of CBX7 [3]): 37 nM
IC50 (chromodomain of CBX4 [4]): 83 nM
IC50 (chromodomain of CDYL2 [5]): 140 nM
B3: compound 1 (UNC3866) (peptide)
peptide: FALKS
modifications: N-terminal para-t-butyl benzoyl cap; diethyl-lysine in lieu of Kme3; C-terminal methyl ester

IC50 (chromodomain of CBX5 [1]): > 60000 nM
Binder: Bz-GFALK(Cyclopentyl)S-OMe [compound 13]

IC50 (chromodomain of CBX5 [2]): > 60000 nM
IC50 (chromodomain of CBX7 [3]): 4400 nM
IC50 (chromodomain of CBX4 [4]): 9700 nM
IC50 (chromodomain of CDYL2 [5]): 200 nM
Binder: {t‑butylbenzyl}-FALK(diethyl)S-OMe (reading uncertain) [compound 36]
